Source: publication PMC2187331
Like-named read-outs stand apart in the source and are kept apart here. Blank lines part the entries; values can stand above or below the substance they belong to.

Experiments:
Experiment in all cases: rosette formation
[1] = biological target: C receptor type 2, the C3d receptor (human (endogenous in Raji)) (UniProt P20023)
[2] = biological target: C receptor type 1, the C3b receptor (human (endogenous in erythrocytes, monocytes and neutrophils)) (UniProt P17927)
[3] = biological target: C receptor type 1, the C3b receptor (human (endogenous in erythrocytes, monocytes and neutrophils)) (UniProt P17927); remark: listed apart in the source
[4] = biological target: C receptor type 1, the C3b receptor (human (endogenous in erythrocytes, monocytes and neutrophils)) (UniProt P17927); remark: listed apart in the source
[5] = biological target: C receptor type 1, the C3b receptor (human (endogenous in erythrocytes, monocytes and neutrophils)) (UniProt P17927); remark: listed apart in the source
[6] = biological target: C receptor type 3, iC3b receptor (human (endogenous in monocytes and neutrophils)) (UniProt P11215)
[7] = biological target: C receptor type 3, iC3b receptor (human (endogenous in monocytes and neutrophils)) (UniProt P11215); remark: listed apart in the source

C receptor type 1, the C3b receptor (human (endogenous in erythrocytes, monocytes and neutrophils)), sequence (P17927 42-2039): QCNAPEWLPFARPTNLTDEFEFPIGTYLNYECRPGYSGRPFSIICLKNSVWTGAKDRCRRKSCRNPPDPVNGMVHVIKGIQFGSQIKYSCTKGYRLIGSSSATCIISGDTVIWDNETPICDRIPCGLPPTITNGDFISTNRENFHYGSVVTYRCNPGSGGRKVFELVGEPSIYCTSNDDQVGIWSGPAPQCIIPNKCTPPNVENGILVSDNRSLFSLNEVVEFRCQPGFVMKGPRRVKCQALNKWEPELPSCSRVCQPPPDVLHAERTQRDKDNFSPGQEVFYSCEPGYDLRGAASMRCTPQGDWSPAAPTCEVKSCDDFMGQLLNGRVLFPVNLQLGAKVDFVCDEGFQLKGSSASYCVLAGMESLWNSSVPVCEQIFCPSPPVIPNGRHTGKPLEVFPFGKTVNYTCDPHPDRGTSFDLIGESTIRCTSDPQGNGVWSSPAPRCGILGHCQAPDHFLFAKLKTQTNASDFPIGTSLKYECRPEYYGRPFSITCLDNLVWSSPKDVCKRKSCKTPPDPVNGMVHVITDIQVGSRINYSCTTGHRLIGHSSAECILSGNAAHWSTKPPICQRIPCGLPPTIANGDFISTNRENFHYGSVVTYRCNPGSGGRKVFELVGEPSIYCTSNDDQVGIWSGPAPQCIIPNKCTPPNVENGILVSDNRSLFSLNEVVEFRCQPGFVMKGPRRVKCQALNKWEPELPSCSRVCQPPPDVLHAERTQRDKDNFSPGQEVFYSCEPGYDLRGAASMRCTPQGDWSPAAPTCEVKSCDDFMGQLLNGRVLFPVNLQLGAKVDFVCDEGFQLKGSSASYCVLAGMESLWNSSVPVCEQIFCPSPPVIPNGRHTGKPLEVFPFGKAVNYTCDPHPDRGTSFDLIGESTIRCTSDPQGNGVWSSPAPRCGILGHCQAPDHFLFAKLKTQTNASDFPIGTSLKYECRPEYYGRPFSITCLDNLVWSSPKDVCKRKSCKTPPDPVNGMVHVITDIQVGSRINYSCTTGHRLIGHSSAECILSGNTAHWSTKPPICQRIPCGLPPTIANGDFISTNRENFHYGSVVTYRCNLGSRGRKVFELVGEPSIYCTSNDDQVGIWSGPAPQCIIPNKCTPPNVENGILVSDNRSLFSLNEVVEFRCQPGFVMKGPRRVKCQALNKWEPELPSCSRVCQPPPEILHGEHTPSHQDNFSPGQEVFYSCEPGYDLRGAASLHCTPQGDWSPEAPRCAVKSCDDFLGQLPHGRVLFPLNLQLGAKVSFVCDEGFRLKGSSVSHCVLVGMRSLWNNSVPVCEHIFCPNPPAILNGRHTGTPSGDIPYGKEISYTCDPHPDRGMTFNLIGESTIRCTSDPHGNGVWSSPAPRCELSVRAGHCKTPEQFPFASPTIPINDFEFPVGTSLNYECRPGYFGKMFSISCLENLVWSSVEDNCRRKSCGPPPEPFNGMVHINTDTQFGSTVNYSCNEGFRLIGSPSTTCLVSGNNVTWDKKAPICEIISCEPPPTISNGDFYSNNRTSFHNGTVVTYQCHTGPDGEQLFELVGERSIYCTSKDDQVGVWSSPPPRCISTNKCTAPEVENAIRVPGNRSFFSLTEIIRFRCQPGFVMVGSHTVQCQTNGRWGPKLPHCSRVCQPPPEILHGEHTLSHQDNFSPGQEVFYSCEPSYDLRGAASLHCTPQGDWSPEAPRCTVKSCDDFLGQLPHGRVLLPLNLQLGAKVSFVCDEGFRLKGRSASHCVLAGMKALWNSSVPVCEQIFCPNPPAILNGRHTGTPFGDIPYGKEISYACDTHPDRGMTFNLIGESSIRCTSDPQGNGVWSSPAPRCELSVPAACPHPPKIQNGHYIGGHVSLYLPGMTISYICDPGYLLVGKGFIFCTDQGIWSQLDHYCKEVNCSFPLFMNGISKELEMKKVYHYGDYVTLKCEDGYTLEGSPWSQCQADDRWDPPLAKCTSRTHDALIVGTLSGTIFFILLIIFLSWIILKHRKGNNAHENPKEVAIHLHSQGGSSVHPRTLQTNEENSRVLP
C receptor type 2, the C3d receptor (human (endogenous in Raji)), sequence (P20023 21-1033): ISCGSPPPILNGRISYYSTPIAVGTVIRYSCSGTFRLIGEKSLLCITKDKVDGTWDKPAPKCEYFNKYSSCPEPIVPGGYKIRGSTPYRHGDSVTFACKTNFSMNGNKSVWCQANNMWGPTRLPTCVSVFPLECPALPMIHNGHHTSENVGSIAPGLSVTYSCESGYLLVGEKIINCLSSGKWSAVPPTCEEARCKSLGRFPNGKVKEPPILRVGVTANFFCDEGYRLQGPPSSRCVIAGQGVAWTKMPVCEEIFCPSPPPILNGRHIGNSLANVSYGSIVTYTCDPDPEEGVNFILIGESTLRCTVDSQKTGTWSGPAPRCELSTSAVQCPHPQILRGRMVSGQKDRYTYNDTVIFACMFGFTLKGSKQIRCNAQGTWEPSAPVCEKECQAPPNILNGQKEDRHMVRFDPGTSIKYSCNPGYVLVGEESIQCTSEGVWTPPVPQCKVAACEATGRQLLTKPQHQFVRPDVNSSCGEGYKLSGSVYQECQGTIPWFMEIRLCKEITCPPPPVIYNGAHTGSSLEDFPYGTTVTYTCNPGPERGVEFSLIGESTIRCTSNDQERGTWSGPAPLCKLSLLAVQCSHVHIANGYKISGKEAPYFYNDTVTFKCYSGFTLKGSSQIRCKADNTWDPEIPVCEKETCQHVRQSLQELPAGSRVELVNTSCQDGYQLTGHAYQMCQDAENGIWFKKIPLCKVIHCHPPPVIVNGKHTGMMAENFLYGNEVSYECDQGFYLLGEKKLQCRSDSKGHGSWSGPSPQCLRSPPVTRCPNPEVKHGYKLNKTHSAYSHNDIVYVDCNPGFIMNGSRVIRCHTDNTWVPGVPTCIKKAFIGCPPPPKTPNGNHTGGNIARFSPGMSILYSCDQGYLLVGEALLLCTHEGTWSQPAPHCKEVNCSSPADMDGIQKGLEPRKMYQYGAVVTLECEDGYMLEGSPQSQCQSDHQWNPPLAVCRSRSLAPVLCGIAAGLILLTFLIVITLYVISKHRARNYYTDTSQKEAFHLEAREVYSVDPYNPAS
C3c, sequence (P01024 23-1663): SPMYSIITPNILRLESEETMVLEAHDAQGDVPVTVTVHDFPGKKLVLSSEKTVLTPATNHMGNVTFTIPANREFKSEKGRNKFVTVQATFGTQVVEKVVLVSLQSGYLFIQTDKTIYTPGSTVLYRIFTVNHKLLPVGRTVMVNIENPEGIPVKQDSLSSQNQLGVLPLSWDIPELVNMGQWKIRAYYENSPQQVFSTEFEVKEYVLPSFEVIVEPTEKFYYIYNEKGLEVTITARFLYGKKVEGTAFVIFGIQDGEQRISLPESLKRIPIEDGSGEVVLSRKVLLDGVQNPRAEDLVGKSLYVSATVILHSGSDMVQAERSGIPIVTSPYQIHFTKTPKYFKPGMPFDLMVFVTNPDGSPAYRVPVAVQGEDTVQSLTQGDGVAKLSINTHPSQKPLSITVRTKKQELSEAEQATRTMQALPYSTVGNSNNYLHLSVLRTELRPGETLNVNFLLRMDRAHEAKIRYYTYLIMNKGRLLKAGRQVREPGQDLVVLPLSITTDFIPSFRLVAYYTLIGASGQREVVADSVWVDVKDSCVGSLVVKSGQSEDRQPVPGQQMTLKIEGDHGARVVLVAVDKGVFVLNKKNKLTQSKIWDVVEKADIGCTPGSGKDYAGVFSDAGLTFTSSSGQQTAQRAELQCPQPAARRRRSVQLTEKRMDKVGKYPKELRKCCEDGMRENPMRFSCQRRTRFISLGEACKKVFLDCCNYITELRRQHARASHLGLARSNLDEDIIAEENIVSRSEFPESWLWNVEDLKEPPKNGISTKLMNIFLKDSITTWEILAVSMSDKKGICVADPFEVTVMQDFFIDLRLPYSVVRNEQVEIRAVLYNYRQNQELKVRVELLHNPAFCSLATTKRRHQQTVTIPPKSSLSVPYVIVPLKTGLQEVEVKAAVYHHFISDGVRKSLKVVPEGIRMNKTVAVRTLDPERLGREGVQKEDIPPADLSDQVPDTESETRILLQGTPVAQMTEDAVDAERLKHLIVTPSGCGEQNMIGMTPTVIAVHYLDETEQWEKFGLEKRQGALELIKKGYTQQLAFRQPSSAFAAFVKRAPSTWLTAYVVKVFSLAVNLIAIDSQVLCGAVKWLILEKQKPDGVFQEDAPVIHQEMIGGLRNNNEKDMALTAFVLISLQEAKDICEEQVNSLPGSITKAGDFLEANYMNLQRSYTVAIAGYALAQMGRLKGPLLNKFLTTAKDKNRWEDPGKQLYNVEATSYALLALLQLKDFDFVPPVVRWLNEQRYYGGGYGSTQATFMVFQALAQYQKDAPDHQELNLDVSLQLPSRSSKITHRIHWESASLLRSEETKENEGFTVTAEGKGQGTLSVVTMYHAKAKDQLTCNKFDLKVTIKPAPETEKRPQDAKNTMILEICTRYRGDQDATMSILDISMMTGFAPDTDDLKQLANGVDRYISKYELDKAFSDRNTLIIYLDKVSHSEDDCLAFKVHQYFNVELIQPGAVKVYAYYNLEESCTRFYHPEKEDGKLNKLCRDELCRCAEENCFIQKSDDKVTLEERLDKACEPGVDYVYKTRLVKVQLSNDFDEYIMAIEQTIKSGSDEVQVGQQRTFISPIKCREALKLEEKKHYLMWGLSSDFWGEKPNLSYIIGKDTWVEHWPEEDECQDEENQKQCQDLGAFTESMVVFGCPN

- % rosette formation (C3d,g microspheres, Raji cells, buffer) [1]: 99%
- % rosette formation (Raji cells, 6.9 x 10^4 C3d,g per E, buffer) [1]: 99%
Substance: C3d,g (from UniProt P01024 1002-1303) (domain or fragment)

- % rosette formation (C3c microspheres, erythrocytes, buffer) [2]: 72%
- % rosette formation (C3c microspheres, monocytes, buffer) [2]: 80%
Substance: C3c (from UniProt P01024 23-667; P01024 749-954; P01024 1321-1663) (domain or fragment)

- % rosette formation (erythrocytes, 14 x 10^3 iC3b per E) [3]: 10%
- % rosette formation (erythrocytes, 37 x 10^3 iC3b per E) [3]: 22%
- % rosette formation (erythrocytes, 65 x 10^3 iC3b per E) [3]: 32%
- % rosette formation (monocytes treated with anti-Mac-1, 14 x 10^3 iC3b per E) [3]: 13%
- % rosette formation (monocytes treated with anti-Mac-1, 65 x 10^3 iC3b per E) [3]: 81%
- % rosette formation (monocytes, 14 x 10^3 iC3b per E) [3]: 18%
- % rosette formation (monocytes, 65 x 10^3 iC3b per E) [3]: 85%
- % rosette formation (neutrophils treated with anti-Mac-1, 14 x 10^3 iC3b per E) [3]: 9%
- % rosette formation (neutrophils treated with anti-Mac-1, 65 x 10^3 iC3b per E) [3]: 86%
- % rosette formation (neutrophils, 14 x 10^3 iC3b per E) [3]: 11%
- % rosette formation (neutrophils, 37 x 10^3 iC3b per E) [3]: 84%
- % rosette formation (neutrophils, 65 x 10^3 iC3b per E) [3]: 88%
- % rosette formation (erythrocytes, 37 x 10^3 iC3b per E) [4]: 5%
- % rosette formation (erythrocytes, 65 x 10^3 iC3b per E) [4]: 8%
- % rosette formation (monocytes treated with anti-Mac-1, 14 x 10^3 iC3b per E) [4]: 6%
- % rosette formation (monocytes treated with anti-Mac-1, 65 x 10^3 iC3b per E) [4]: 74%
- % rosette formation (monocytes, 14 x 10^3 iC3b per E) [4]: 8%
- % rosette formation (monocytes, 65 x 10^3 iC3b per E) [4]: 77%
- % rosette formation (neutrophils treated with anti-Mac-1, 14 x 10^3 iC3b per E) [4]: 3%
- % rosette formation (neutrophils treated with anti-Mac-1, 65 x 10^3 iC3b per E) [4]: 93%
- % rosette formation (neutrophils, 14 x 10^3 iC3b per E) [4]: 2%
- % rosette formation (neutrophils, 37 x 10^3 iC3b per E) [4]: 78%
- % rosette formation (neutrophils, 65 x 10^3 iC3b per E) [4]: 97%
- % rosette formation (erythrocytes, 37 x 10^3 iC3b per E) [5]: 15%
- % rosette formation (erythrocytes, 65 x 10^3 iC3b per E) [5]: 22%
- % rosette formation (monocytes treated with anti-Mac-1, 14 x 10^3 iC3b per E) [5]: 5%
- % rosette formation (monocytes treated with anti-Mac-1, 65 x 10^3 iC3b per E) [5]: 75%
- % rosette formation (neutrophils treated with anti-Mac-1, 14 x 10^3 iC3b per E) [5]: 4%
- % rosette formation (neutrophils treated with anti-Mac-1, 65 x 10^3 iC3b per E) [5]: 95%
- % rosette formation (monocytes treated with anti-CR1, 14 x 10^3 iC3b per E) [6]: 74%
- % rosette formation (monocytes treated with anti-CR1, 65 x 10^3 iC3b per E) [6]: 85%
- % rosette formation (monocytes, 7.9 x 10^3 iC3b per E) [6]: 59%
- % rosette formation (neutrophils treated with anti-CR1, 14 x 10^3 iC3b per E) [6]: 79%
- % rosette formation (neutrophils treated with anti-CR1, 65 x 10^3 iC3b per E) [6]: 92%
- % rosette formation (erythrocytes, 14 x 10^3 iC3b per E) [2]: 21%
- % rosette formation (erythrocytes, 37 x 10^3 iC3b per E) [2]: 39%
- % rosette formation (erythrocytes, 65 x 10^3 iC3b per E) [2]: 60%
- % rosette formation (iC3b microspheres, erythrocytes, buffer) [2]: 75%
- % rosette formation (iC3b microspheres, monocytes, buffer) [2]: 96%
- % rosette formation (monocytes treated with anti-Mac-1, 14 x 10^3 iC3b per E) [2]: 20%
- % rosette formation (monocytes treated with anti-Mac-1, 65 x 10^3 iC3b per E) [2]: 92%
- % rosette formation (neutrophils treated with anti-Mac-1, 14 x 10^3 iC3b per E) [2]: 13%
- % rosette formation (neutrophils treated with anti-Mac-1, 65 x 10^3 iC3b per E) [2]: 100%
- % rosette formation (iC3b microspheres, Raji cells, buffer) [1]: 98%
- % rosette formation (anti-CR1-treated monocytes, 1.4 x 10^4 iC3b per E, BDVA) [7]: 84%
- % rosette formation (anti-CR1-treated monocytes, 7.9 x 10^3 iC3b per E, BDVA) [7]: 44%
- % rosette formation (monocytes treated with anti-CR1, 14 x 10^3 iC3b per E) [7]: 95%
- % rosette formation (monocytes treated with anti-CR1, 65 x 10^3 iC3b per E) [7]: 94%
- % rosette formation (monocytes, 7.9 x 10^3 iC3b per E) [7]: 86%
- % rosette formation (neutrophils treated with anti-CR1, 14 x 10^3 iC3b per E) [7]: 100%
- % rosette formation (neutrophils treated with anti-CR1, 65 x 10^3 iC3b per E) [7]: 100%
Substance: iC3b (inactivated C3b) (from UniProt P01024 23-667; P01024 749-1663; P01024 749-1663) (domain or fragment)
